Assay results taken from US20070196354A1, “Method of treating diabetes by inhibiting degradation of at least one of crebl1, atf6, and hnf-4 alpha by htra” (priority 2003, published 2007).

Biological target: T1, HNF-4α (Homo sapiens, UniProt P41235)
T1 construct: expressed in transfected cells; host or cells: HEK293T
T1 sequence (P41235 10-474): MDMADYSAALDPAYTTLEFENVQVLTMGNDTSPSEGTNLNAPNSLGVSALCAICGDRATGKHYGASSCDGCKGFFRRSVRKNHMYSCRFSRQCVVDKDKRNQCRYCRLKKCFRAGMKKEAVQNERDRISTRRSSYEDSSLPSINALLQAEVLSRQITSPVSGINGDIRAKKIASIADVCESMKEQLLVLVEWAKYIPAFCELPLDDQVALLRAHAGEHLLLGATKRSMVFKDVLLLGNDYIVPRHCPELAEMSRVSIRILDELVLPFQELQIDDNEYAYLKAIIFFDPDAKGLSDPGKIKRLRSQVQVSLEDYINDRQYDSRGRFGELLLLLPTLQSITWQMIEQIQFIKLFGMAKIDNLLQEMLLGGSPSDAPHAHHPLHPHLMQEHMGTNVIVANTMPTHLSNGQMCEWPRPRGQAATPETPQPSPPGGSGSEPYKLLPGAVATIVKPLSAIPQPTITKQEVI
Test: In vitro protease assay, HNF-4α captured on resin
Assay type: biochemical
Settings: 50 μg/ml, 37° C., overnight (O/N), anti-FLAG detection
Method: HNF-4α captured on the resin by immunoprecipitation was used in the experiments in order to eliminate the influence of proteinaceous impurities contained in the HNF-4α soluble fraction. More specifically, 300 μl of HNF-4α soluble fraction was dispensed to six tubes (Nos. 1 to 6), followed by adding 20 μl of protein G sepharose 4 FF (Amersham) of 50% slurry that had been subjected to blocking with BSA, to each of tubes, subjected to overturned mixing at 4° C. for 1 hour, and then subjected to centrifugation (10,000 rpm, 10 sec, 4° C.) to collect the supernatant, and thus the pre-treatment (pre-clean) was performed. The resultant supernatant was mixed with 0.4 μl (2 μg) of anti-FLAG antibody (Sigma) by overturned mixing at 4° C. for 3 hours, followed by adding 20 μl of protein G sepharose 4 FF that had been subjected to blocking with BSA, and then subjected to overturned mixing at 4° C. overnight. Thus, HNF-4α was captured on protein G sepharose 4 FF. […]

B1: mature HtrA2: SEQ ID NO: 4; mature protein generated from HtrA2 precursor by cleavage of N-terminal 133 residues, has protease activity (protein, listed as Homo sapiens)
chain: MAVPSPPPASPRSQYNFIADVVEKTAPAVVYIEILDRHPFLGREVPISNGSGFVVAADGLIVTNAHVVADRRRVRVRLLSGDTYEAVVTAVDPVADIATLRIQTKEPLPTLPLGRSADVRQGEFVVAMGSPFALQNTITSGIVSSAQRPARDLGLPQTNVEYIQTDAAIDFGNSGGPLVNLDGEVIGVNTMKVTAGISFAIPSDRLREFLHRGEKKNSSSGISGSQRRYIGVMMLTLSPSILAELQLREPSFPDVQHGVLIHKVILGSPAHRAGLRPGDVILAIGEQMVQNAEDVYEAVRTQSQLAVQIRRGRETLTLYVTPEVTE
modifications: mature HtrA2
degradation of HNF-4α (band by western blotting): the band of HNF-4α was reduced significantly
